Experiments:
[1] = target: mouse CD3εγ-chains (mouse (endogenous in C57BL/6 spleen T cells)) (UniProt P22646)
[2] = target: mouse CD3εγ-chains (mouse (endogenous in C57BL/6 spleen T cells)) (UniProt P22646); assay: flow cytometry on cells; fixed CD8+ T cells (1 x 10^6/mL) incubated with or without ArtinM (25 µg/mL) for 40 min at 4 °C, then with 145-2C11-PE or 17A2-FITC (10 µg/mL) for 40 min at 4 °C; percentage of cells labelled with anti-CD3 antibody

Sequence of UniProt P22646 (P22646 22-189, chain 1 of 2): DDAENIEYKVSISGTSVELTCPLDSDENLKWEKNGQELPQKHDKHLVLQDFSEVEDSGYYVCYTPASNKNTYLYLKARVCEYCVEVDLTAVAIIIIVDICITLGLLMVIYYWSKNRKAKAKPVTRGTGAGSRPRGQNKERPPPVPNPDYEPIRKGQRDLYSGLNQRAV
Sequence of UniProt P22646 (P11942 23-182, chain 2 of 2, further chain): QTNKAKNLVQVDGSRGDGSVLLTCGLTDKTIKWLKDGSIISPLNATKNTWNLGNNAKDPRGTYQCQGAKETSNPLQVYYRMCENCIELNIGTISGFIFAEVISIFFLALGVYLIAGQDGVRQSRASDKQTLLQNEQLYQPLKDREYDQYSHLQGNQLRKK

inhibition of the ArtinM-induced (1.25 µg/mL, 48 h) IL-2 release by CD8+ T cells after treatment with the anti-CD3εγ-chains antibody 17A2 (8 µg/mL), against an IgG isotype control; ELISA [1]: 70% | fold decrease in the frequency of CD8+ T cells labelled by the anti-CD3εγ antibody 17A2 after pre-incubation with ArtinM [2]: 3.5 fold
Substance: ArtinM, D-mannose-binding lectin from Artocarpus heterophyllus (natural protein)

From publication PMC5535893
